Patent US20240254209A1
Values joined by “and” are separate entries in the source; they are usually repeats but may differ in a detail not shown here. Equal values may be shown once. One block for each binder: values may come before it.

Assays:
[1] = biological target: peanut extract (peanut ImmunoCAP F13); test: ImmunoCAP, hybridoma supernatant
[2] = biological target: T1, peanut allergen Ara h 2 (peanut (Arachis hypogaea)) (UniProt Q6PSU2); test: ImmunoCAP, hybridoma supernatant
T1 sequence (looked up): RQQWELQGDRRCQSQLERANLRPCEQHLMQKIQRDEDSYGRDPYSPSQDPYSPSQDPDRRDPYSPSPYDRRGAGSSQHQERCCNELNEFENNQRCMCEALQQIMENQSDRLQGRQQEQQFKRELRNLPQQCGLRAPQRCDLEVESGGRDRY

[3] = biological target: T2, peanut allergen Ara h 1 (peanut (Arachis hypogaea)) (UniProt P43238); test: ImmunoCAP, hybridoma supernatant
T2 sequence (looked up): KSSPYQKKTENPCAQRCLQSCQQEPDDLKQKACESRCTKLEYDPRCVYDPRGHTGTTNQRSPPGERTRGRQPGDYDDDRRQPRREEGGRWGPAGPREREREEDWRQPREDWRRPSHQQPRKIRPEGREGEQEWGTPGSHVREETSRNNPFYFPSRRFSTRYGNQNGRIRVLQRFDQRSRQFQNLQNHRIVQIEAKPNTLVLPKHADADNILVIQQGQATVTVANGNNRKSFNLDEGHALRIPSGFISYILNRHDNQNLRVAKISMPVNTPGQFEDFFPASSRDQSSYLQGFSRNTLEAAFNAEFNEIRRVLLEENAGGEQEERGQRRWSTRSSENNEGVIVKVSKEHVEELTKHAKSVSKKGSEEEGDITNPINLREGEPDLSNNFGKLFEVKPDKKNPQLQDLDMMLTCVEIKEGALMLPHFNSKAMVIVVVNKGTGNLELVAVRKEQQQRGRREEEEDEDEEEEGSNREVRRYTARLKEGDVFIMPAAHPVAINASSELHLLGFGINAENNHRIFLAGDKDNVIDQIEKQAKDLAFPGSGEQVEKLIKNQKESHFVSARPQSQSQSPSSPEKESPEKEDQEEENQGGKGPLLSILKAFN

[4] = biological target: peanut extract (peanut ImmunoCAP F13); test: peanut ImmunoCAP serum blocking; competitor: serum IgE of peanut allergic subjects
[5] = biological target: T3, peanut allergen Ara h 6 (peanut (Arachis hypogaea)) (UniProt Q647G9); test: Ara h 6 ImmunoCAP serum blocking; competitor: serum IgE of peanut allergic subjects
T3 sequence (looked up): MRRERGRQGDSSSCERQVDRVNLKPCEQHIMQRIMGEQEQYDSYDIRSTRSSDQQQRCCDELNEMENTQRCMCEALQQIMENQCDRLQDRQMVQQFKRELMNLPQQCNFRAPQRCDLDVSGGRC

ImmunoCAP kUA/L [1]: 1500 kUA/L
ImmunoCAP kUA/L [2]: 0.63 kUA/L
ImmunoCAP kUA/L [3]: 0.3 kUA/L
B1: human IgE mAb 3B7 (antibody, V domains shown)
VH: QVQLVQSGSELKKPGASMKVSCKASGYTFTNYAMNWVRQAPGQGLEWMGWINTNTGKPTYAQGFTGRFVFSLDTSVSMAYLQISSLEAGDTAVYFCARGESLAALGSFAYWGQGTLVTVSS
VL: DIQMTQSPSSLSASVGDRVTITCRASQSINSYLAWYQQKPGKAPNLLIYAASNLQSGVPSRFSGSGSGTDFTLTISSLQPEDFATYYCQQSSSTFWTFGQGTKVEIK

ImmunoCAP kUA/L [1]: 286 kUA/L
ImmunoCAP kUA/L [2]: 203 kUA/L
ImmunoCAP kUA/L [3]: 0.11 kUA/L
B4: human IgE mAb 38B7 (antibody, V domains shown)
VH: QVQLVESGGGVVQPGRSLRLSCVGSGFTFRRDAKYWVRQAPGKGLEWVAAISHDGGEEDYAESVKGRFTISRDNSRETVYLEMNSLRPEDTAVYYCATTRSGWYFDYWGQGALVTVSS
VL: EIVLTQSPATLSLSPGARATLSCRASQSVDTYLAWYQQRRGQSPRLLIYDASKRATGIPARFSGSGSGTDFTLTISSLEPEDFAVYYCQQRNNWRTWTFGQGTKVEIN

percent of total peanut binding serum IgE blocked [4]: 20% and 25%
percent of serum Ara h 6-specific IgE blocked [5]: 50%
B8: Ara h 6-specific blocking IgG mAb 8F3 (antibody, V domains shown)
VH: QLQLQESGPGLVKPSETLSLTCTVSDASIDTPSYFWSWIRQPPGKGLEWIGSIYYTGNKYSNPSLKSRVTMSVDTPKRQFSLRLSSVTAADTAVYYCARYVDYVWLRAFDIWGQGTRVTVSS
VL: EIVLTQSPATLSLSPGERATLSCRASPSAGRFLAWYQQRPGQAPRLLIYDASKRATDTPARFSGSGSGTDFNLTIASLEPEDFAVYYCQHRSNWPLTFGGGTKVEIK

ImmunoCAP kUA/L [1]: 715 kUA/L
ImmunoCAP kUA/L [2]: 0.46 kUA/L
ImmunoCAP kUA/L [3]: 0.36 kUA/L
B9: human IgE mAb 21C10 (antibody, V domains shown)
VH: EVQLVESGGGLVKPGGSLRLSCAASGFILSRSSMSWVRQAPGKGLEWVSYISSTSSHIYYADSLKGRFTISRDNTENSVYLQMSSLRAEDTGVYYCARKTNGAWFLDLWGRGTLVTVSS
VL: QSVLTQPPSVSGAPGQRVTISCTGSSSNIGAGSDVHWYQQFPGSAPHVLIYGNNQRPSGVPDRFSASKSGTSASLAITGLQADDEADYYCQSYDYDLSGSWVFGGGTKLTVL

Second part, the binder before the results:

B2: human IgE mAb 15A7 (antibody, V domains shown)
VH: QVQLVQSGPEVRKPGASVKVSCKTSGYMFTDYEMNWVRQAPGQGLEWMGLINPHSGDTGYAQKFQGRVSMTSDTSTRTFYLELTGLTSEDTAVYYCARSQGTFEVYYFVSWGQGSLVTVSS
VL: SYVLTQPPSVSVAPGKTASITCGAKNIATKRVHWYRQKPGQAPVVVVSDEEDRSSVIPERFSGSKSGDTATLEISRVEAGDEADYYCQVWDSLADQVVFGGGTKVTVL
ImmunoCAP kUA/L [1]: 14 kUA/L
ImmunoCAP kUA/L [2]: 25.8 kUA/L

B3: human IgE mAb 7B6 (antibody, V domains shown)
VH: QVQLQQWGAGLLKPSETLSLTCAVYGGSFNGYYWSWIRQPPGKGLEWIGEIDHSGSTNYNSSLKSRVTISVDTSKNQFSLKLSSVTAADTAVYYCARRRIGSLLKYFQDWGQGTLVTVSS
VL: SYELTQPPSVSVSPGQTASITCSGDKLGDSYVCWYQLKPGQSPVLVIYQDTKRPSGIPERFSGSNSGNTATLTISETQAMDEADYYCQAWDTTTDWVFGGGTKLTVL
ImmunoCAP kUA/L [1]: 420 kUA/L
ImmunoCAP kUA/L [2]: 0.41 kUA/L
ImmunoCAP kUA/L [3]: 0.19 kUA/L

B5: Ara h 6-specific blocking IgG mAb 1H9 (antibody, V domains shown)
VH: QVQLVQSGSELRKPGASVKVSCKASGYTFTKYGMNWVRQAPGQGLEWMGWINTNTAKPTYAQDFTGRFVFSLDTSVNTAYLEISGLKAEDTAVYYCATDGSEGSWGQGTLVTVSS
VL: DIQMTQSPSTLSASVGDRVTITCRASQSIGTWLAWHQQKPGTAPKVLIYKASNLKSGVPSRFSGSGSGTDFTLTISSLQPDDVATYYCQQYNTYSGTFGQGTRVEIK
percent of total peanut binding serum IgE blocked [4]: 20% and 25%
percent of serum Ara h 6-specific IgE blocked [5]: 50%

B6: human IgE mAb 26A5 (antibody, V domains shown)
VH: QVQLVQSGSELRKPGASVKVSCKASGYTFTKYGMNWVRQAPGQGLEWMGWINTNTAKPTYAQDFTGRFVFSLDTSVNTAYLEISGLKAEDTAVYYCATDGSEGSWGQGTLVTVSS
VL: DIQMTQSPSTLSASVGDRVTITCRASQSIGTWLAWHQQKPGTAPKVLIYKASNLKSGVPSRFSGSGSGTDFTLTISSLQPDDVATYYCQQYNTYSGTFGQGTRVEIK
ImmunoCAP kUA/L [1]: 783 kUA/L
ImmunoCAP kUA/L [2]: 0.46 kUA/L
ImmunoCAP kUA/L [3]: 0.15 kUA/L

B7: human IgE mAb 3C3 (antibody, V domains shown)
VH: QLQLQESGPGLVKPSETLSLTCSISGASINSDDYYWGWIRQAPGEALEWIASIDASGTTFYNPSLRSRVTISVDTSTNQISLRLNSVTAADTAIYYCARRKTYYDFLTDYYNWYFDVWGRGTLVTVSS
VL: QSALTQPRSVSGSPGQSVTFSCTGINSDIRDYDYVSWYQQHPGEAPKLIIYDVTKRASGVPSRFSGSKSGNTASLTISGLQAEDEADYYCCSYSVTYSFEVFGTGTQVSVL
ImmunoCAP kUA/L [1]: 3140 kUA/L
ImmunoCAP kUA/L [2]: 0.85 kUA/L
ImmunoCAP kUA/L [3]: 0.6 kUA/L

B10: human IgE mAb 2C9 (antibody, V domains shown)
VH: QVQLVESGGGLVKPGGSLRLSCAASGFSFSDFYMSWIRQAPGKGLECISYMSSSGGNIYYADSVKGRFTISRDNAKNSLSLQMNSLRADDTALYYCARRRYGSGSSIFDYWSQGTLVTVSS
VL: SYELTQPPSVSVSPGQTASVTCSGDTLGDRYVSWYQQKAGQSPVLVIYQSGQRPSGIPERFSGSNSGNTATLSISETQALDEADYYCLTWDRGTPVFGPGTTVTVV
ImmunoCAP kUA/L [1]: 21.4 kUA/L
ImmunoCAP kUA/L [2]: 0.13 kUA/L
